Measurements as given in the DeepSol protein solubility set.

experiment: soluble on expression in E. coli; label from the status in PepcDB or PDB records

Q: For “MSSKSIHEKRAIAKYAASLIEDGDCIFVDAGTTTYELIDYLEGKDILVVSNGLSHIDTLIQKNIKCYVIGGNIKISTKAITGCDALMCLSKFRFDKCFIGANGVHHTYGLTTPDTEEAILKECAINNSRKAYVLADDSKFGEISTIKFSDINKCVIITNEKPKDNTYDKKTDIKVVDILEHHHHHH”, which “soluble on expression in E. coli” value is on record?
A: soluble

Q: Which “soluble on expression in E. coli” value does the source give for “MSSLCPYTGRPTGLFRDFEDMMPYWAQRHSMLNNFNNIVPQQLNEVENTAQKFCVKLDVAAFKPEELKVNLEGHVLTIEGHHEVKTEHGFSKRSFTRQFTLPKDVDLAHIHTVINKEGQMTIDAPKTGSNTTVRALPIHTSAGHAVTQKPSSTTTTGKH” here?
A: not soluble

Q: With “MSSLHLDALHWSPDASTELLRGVHLEVPAGSFVGLIGPNGSGKTSLLRCAFRYARPQRGRVVLDGDDLWRQPPRWAARRIAVVLQEFPEDFGLAVEDVVAMGRTPHKGLFDGHGADDRQRVRQALLQVGLEGRAASPFASLSGGEKQRALLARALVQEPRLLILDEPTNHLDPRYQLELLRLLRSLGLSTLASFHDLNLAAAFCDRLYVLDGGRIVAQGTPTEVLDADLLWRVFGVRALVDRHPLADHPR” as the sequence, how does the “soluble on expression in E. coli” value read?
A: not soluble

Q: For “MSSNALYTDLSGYYDLMCSDINYQQQSASIHRLHQFLGNNGKQHLDLACGTGPHVRHFIDLGYQCSGLDINQPMLDMAMRRCPEAQFNLQDMTAFYLEQPVDLITCFLYSIHYSAGIERLKSCIASVHRALNDGGIFCFNSVDKHCIDNRLSIKHFAEFEGYHFAFESGWHYNGQGEKQSLNLSIAKRQQPFTQLTDFEADTSLHQTELWQDQHTMVATSFAELQALLAPYFEVHIFEHDYEKIVPWDLSSGNALFVCVKILEHHHHHH”, which “soluble on expression in E. coli” value is on record?
A: not soluble

Q: With “MSSNECFKCGRSGHWARECPTGGGRGRGMRSRGRGGFTSDRGFQFVSSSLPDICYRCGESGHLAKDCDLQEDACYNCGRGGHIAKDCKEPKREREQCCYNCGKPGHLARDCDHADEQKCYSCGEFGHIQKDCTKVKCYRCGETGHVAINCSKTSEVNCYRCGESGHLARECTIEATA” as the sequence, how does the “soluble on expression in E. coli” value read?
A: soluble

Q: With “MSSNNAGESDGTGPALPTVWPGNAYPLGATYDGAGTNFSLFSEIAEKVELCLIDEDGVESRIPLDEVDGYVWHAYLPNITPGQRYGFRVHGPFDPAAGHRCDPSKLLLDPYGKSFHGDFTFGQALYSYDVNAVDPDSTPPMVDSLGHTMTSVVINPFFDWAYDRSPRTPYHETVIYEAHVKGMTQTHPSIPPELRGTYAGLAHPVIIDHLNELNVTAVELMPVHQFLHDSRLLDLGLRNYWGYNTFGFFAPHHQYASTRQAGSAVAEFKTMVRSLHEAGIEVILDVVYNHTAEGNHLGPTINFRGIDNTAYYRLMDHDLRFYKDFTGTGNSLNARHPHTLQLIMDSLRYWVIEMHVDGFRFDLASTLARELHDVDRLSAFFDLVQQDPVVSQVKLIAEPWDVGEGGYQVGNFPGLWTEWNGKYRDTVRDYWRGEPATLGEFASRLTGSSDLYEATGRRPSASINFVTAHDGFTLNDLVSYNDKHNEANGENNRDGESYNRSWNCGVEGPTDDPDILALRARQMRNMWATLMVSQGTPMIAHGDEIGRTQYGNNNVYCQDSELSWMDWSLVDKNADLLAFARKATTLRKNHKVFRRRRFFEGEPIRSGDEVRDIAWLTPSGREMTHEDWGRGFDRCVAVFLNGEAITAPDARGERVVDDSFLLCFNAHDHDVEFVMPHDGYAQQWTGELDTNDPVGDIDLTVTATDTFSVPARSLLVLRKTL” as the sequence, how does the “soluble on expression in E. coli” value read?
A: not soluble

Q: With “MSSQISEIEQEQLIEKLEIFKIHGRDKRGRKILRIIGKFFPARFLSLDVLKKYLEEKIFPRLGRKPFAVLYVHTGVQRSENFPGISALRAIYDAIPVNVRDNLQEVYFLHPGLQSRLFLATCGRFLFSGGLYGKLRYISRVDYLWEHVRRNEIEMPEFVYDHDDDLEYRPMMDYGQESDHARVFAGAAVDSSVSSFSMRCIS” as the sequence, how does the “soluble on expression in E. coli” value read?
A: soluble

Q: With “MSSRKKVRVLLLKNKTVPIDKYELECRSKAFEPIFVPLIKHTHVIQDFRNVLNTIPNYLNTINYIIITSQRTVESLNEAIIPTLTSEQKAALLSKTVYTVGPATANFIRRSGFINVKGGEDAGNGSILADIIIDDLSTDIKACPPSELLFLVGEIRRDIIPKKLHSKGIKVREVVTYKTEELSDGFKRFIHAMKECDEDEVFSDWVVVFSPQGTKEITQYLGDSNRLPGSHLRVASIGPTTKKYLDDNDVTSDVVSPKPDPKSLLDAIELYQRHK” as the sequence, how does the “soluble on expression in E. coli” value read?
A: soluble

Q: With “MSSRVLTPDVVGIDALVHDHQTVLAKAEGGVVAVFANNAPAFYAVTPARLAELLALEEKLARPGSDVALDDQLYQEPQAAPVAVPMGKFAMYPDWQPDADFIRLAALWGVALREPVTTEELASFIAYWQAEGKVFHHVQWQQKLARSLQIGRASNGGLPKRDVNTVSEPDSQIPPGFRG” as the sequence, how does the “soluble on expression in E. coli” value read?
A: soluble

Q: For “MSSTKSIPADVIAKLQKFDELITKLEDAVEEVDVGVEKHFERSAHEMALVDTMSMFLMDSLMWAVQATKGGGADKNDDLLIDLARTKRMTADMKEINLRQDAPRINKQAAANFVRNALWEQPEQGESSKKAAK”, which “soluble on expression in E. coli” value is on record?
A: not soluble

Q: For “MSSVAVLTQESFAEHRSGLVPQQIKVATLNSEEESDPPTYKDAFPPLPEKAACLESAQEPAGAWGNKIRPIKASVITQVFHVPLEERKYKDMNQFGEGEQAKICLEIMQRTGAHLELSLAKDQGLSIMVSGKLDAVMKARKDIVARLQTQASATVAIPKEHHRFVIGKNGEKLQDLELKTATKIQIPRPDDPSNQIKITGTKEGIEKARHEVLLISAEQDKRAVERLEVEKAFHPFIAGPYNRLVGEIMQETGTRINIPPPSVNRTEIVFTGEKEQLAQAVARIKKIYEEKKKKTTTIAVEVKKSQHKYVIGPKGNSLQEILERTGVSVEIPPSDSISETVILRGEPEKLGQALTEVYAKANSFTVSSVAAPSWLHRFIIGKKGQNLAKITQQMPKVHIEFTEGEDKITLEGPTEDVSVAQEQIEGMVKDLINRMDYVEINIDHKFHRHLIGKSGANINRIKDQYKVSVRIPPDSEKSNLIRIEGDPQGVQQAKRELLELASRMENERTKDLIIEQRFHRTIIGQKGERIREIRDKFPEVIINFPDPAQKSDIVQLRGPKNEVEKCTKYMQKMVADLVENSYSISVPIFKQFHKNIIGKGGANIKKIREESNTKIDLPAENSNSETIIITGKRANCEAARSRILSIQKDLANIAEVEVSIPAKLHNSLIGTKGRLIRSIMEECGGVHIHFPVEGSGSDTVVIRGPSSDVEKAKKQLLHLAEEKQTKSFTVDIRAKPEYHKFLIGKGGGKIRKVRDSTGARVIFPAAEDKDQDLITIIGKEDAVREAQKELEALIQNLDNVVEDSMLVDPKHHRHFVIRRGQVLREIAEEYGGVMVSFPRSGTQSDKVTLKGAKDCVEAAKKRIQEIIEDLEAQVTLECAIPQKFHRSVMGPKGSRIQQITRDFSVQIKFPDREENAVHSTEPVVQENGDEAGEGREAKDCDPGSPRRCDIIIISGRKEKCEAAKEALEALVPVTIEVEVPFDLHRYVIGQKGSGIRKMMDEFEVNIHVPAPELQSDIIAITGLAANLDRAKAGLLERVKELQAEQEDRALRSFKLSVTVDPKYHPKIIGRKGAVITQIRLEHDVNIQFPDKDDGNQPQDQITITGYEKNTEAARDAILRIVGELEQMVSEDVPLDHRVHARIIGARGKAIRKIMDEFKVDIRFPQSGAPDPNCVTVTGLPENVEEAIDHILNLEEEYLADVVDSEALQVYMKPPAHEEAKAPSRGFVVRDAPWTASSSEKAPDMSSSEEFPSFGAQVAPKTLPWGPKR”, which “soluble on expression in E. coli” value is on record?
A: soluble

Q: Which “soluble on expression in E. coli” value does the source give for “MSSVLDVTKPDFDVEAFVVKLLREKSLDGLVKEEEEMVSAVRRLDSDVHQIVYENYNKFLTATNTVRKIQDEFTQLDSEMKSLSRSMSTISTLIGNLDGVLGEKRDDILQLGSSYKVVNSLKHIFDLPHVLRSEFDERNYGEVLRMFKLAEESLSQYKDVPTVQLVLQKSKKIYDMTENQLMDQLRNPASGAELVSEAVDLLLTIGRDEDEVQKVLLTCSEQSLRVDLKELSANHSDVLDLVDKASESFIPNLTLIATTHDRLFEDKREDLITVLKTEMNSLHALVSKVFLSSSDAKDCSIVVRALDRYFRKISTCRYVIPGLDFLPLTIELINAVSKHEIDLSLTRIKEELKNGLNEVRKALINEEKDLSALASKIEQVFVHQVKTALANLLLFTASDVTFANLPPDEFRQSFSFNAHERLLVQAFHRFSELADEYESGAGEIRFVDPRVHLVFAVALQHLSNKSAVYLLNLCREQFSLSPDDGLTDITVVMSEVKTRAQKLVRCYAEKTGLSMGETLIKGCAMLVQPAATPSAVRASVRRLVEEMNTCDSELTLLLGGDSKPKDSRVSRRPITTALDAARDSLWCERIDFHLQIHFNRASIITVIVKVVLKIFIESIRLQTYSKFGVEQVQVDCYYLQRCLAALVSDEVVVNSMVDQALSSALKRCQDPVLVHPSRLAQLCEQPPANRPSSQASSLGY” here?
A: not soluble
